Assay in all cases: SPR; 37°C
A general note: SPR reads the build-up and loss of mass on a sensor chip optically.

Experiment [1] has as its target human 4-1BB residues 24–186, wild type, His–Avi (human, UniProt Q07011 24-186).
For experiment [2], the target named is human 4-1BB residues 24–186 I132R, His–Avi (human, UniProt Q07011 24-186, I132R).
Experiment [3] deals with human 4-1BB residues 24–186 M101R, His–Avi (human, UniProt Q07011 24-186, M101R).
human 4-1BB residues 24–186 M101R, His–Avi, sequence (Q07011 24-186 M101R): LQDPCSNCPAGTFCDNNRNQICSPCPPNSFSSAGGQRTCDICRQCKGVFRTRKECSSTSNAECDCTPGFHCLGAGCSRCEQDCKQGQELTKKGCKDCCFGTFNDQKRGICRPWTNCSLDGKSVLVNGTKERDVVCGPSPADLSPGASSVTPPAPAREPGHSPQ

human 4-1BB residues 24–186, wild type, His–Avi, sequence (Q07011 24-186): as the sequence (Q07011 24-186 M101R) above, with R78M counted along it
human 4-1BB residues 24–186 I132R, His–Avi, sequence (Q07011 24-186 I132R): as the sequence (Q07011 24-186 M101R) above, with R78M, I109R counted along it

B1: urelumab (fully human IgG4 mAb) (antibody, V domains shown)
VH: QVQLQQWGAGLLKPSETLSLTCAVYGGSFSGYYWSWIRQSPEKGLEWIGEINHGGYVTYNPSLESRVTISVDTSKNQFSLKLSSVTAADTAVYYCARDYGPGNYDWYFDLWGRGTLVTVSS
VL: EIVLTQSPATLSLSPGERATLSCRASQSVSSYLAWYQQKPGQAPRLLIYDASNRATGIPARFSGSGSGTDFTLTISSLEPEDFAVYYCQQRSNWPPALTFGGGTKVEIK
As a reminder, the koff is the first-order rate constant of dissociation. As to B1, the results for the koff in experiment [1], in experiment [2] and in experiment [3] were 0.014 s⁻¹, 0.012 s⁻¹ and 0.0095 s⁻¹, respectively.
